B1: TPR t1 (parent)
chain: GACCAAUCUGCCCUCAGAGCUCGAGAACAUCUUCGGAUGCAGAGGAGGCAGGCUUCGGUGGCGCGAUAGCGCCAACGUCCUCAACCUCCAAUGCAUCCCACCACAUGAUGAUGCCUGAAGAGCCUUGGUUUUUUG

Variants of: B1
Experiment: polymerase ribozyme fitness, log enrichment relative to wild type (log ratio); higher = more active; in vitro selection for triplet polymerase activity
Outline: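 Each subunit of a heterodimeric triplet polymerase ribozyme was mutagenized into a library by PCR, transcribed, and subjected to one round of in vitro selection, run in triplicate. Libraries were annealed with a biotinylated primer, the partner subunit and triplets, incubated frozen at −7 °C, and extended constructs were gel-excised, captured on streptavidin beads and recovered by RT-PCR. Input and output libraries were sequenced on Illumina, keeping genotypes with ≥10 input reads and ≥1 read per output. Fitness is log base 2 of genotype enrichment divided by wild-type enrichment, from inverse-variance-weighted replicate averages.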

In order of rising “polymerase ribozyme fitness (log ratio)” value:
1. C79G U109A  -7.49
2. C79A C99G G120U  -7.33
3. G77U U109A U116G  -7.07
4. C79G G110C  -6.49
5. G77U C89A U109A  -6.3
6. C76A C82U A95G C104G G120C  -5.79
7. U78G A103C U130C  -5.75
8. U78A G107A  -5.55
9. C76A C79U C82G A100C C101A  -4.79
10. C79A C115G A118U  -4.7
11. C76U G107C A121G U126A  -4.6
12. C79U G117A A119U  -4
13. U78C A83U G117C A119U  -3.98
14. U78C U87G C88A G113A G127A  -3.89
15. C79A G113A C124G  -3.89
16. G77U U78A A118U  -3.74
17. C79G A108G  -3.63
18. C79U A91C A100U  -3.6
19. C79G G110A  -3.53
20. C79A G128C  -3.31
21. U78C C98U U112A U130A  -3.27
22. C79A A84G  -3.26
23. U78C A83C G113U  -3.26
24. U78C U92G  -2.87
25. C79G G127U  -2.87
26. C76G C114U  -2.74
27. G77A C114G U130C  -2.63
28. A75U G113A G127C  -2.56
29. C79A C115G  -2.56
30. C76G G113A G122C G135U  -2.49
31. C79G G127A  -2.38
32. C79G A84U  -2.3
33. C79G C85U  -2.29
34. G77C C101A G127A  -2.16
35. U78C U116G G117A  -2.14
36. C79G G122A  -2.11
37. U78C A83C C89G  -2.02
38. C79G C88G U112A  -1.98
39. U78C G128A  -1.95
40. C76G G120U U129A  -1.93
41. C79U U81C  -1.91
42. U78A C104A  -1.8
43. U78A G128A  -1.76
44. C79A C82G U112A  -1.75
45. U78G G113A U130C  -1.64
46. G77U G117A  -1.62
47. C76G A119U  -1.37
48. U78C A100U U125G  -1.3
49. U78C G135U  -1.27
50. U78C G93C U96C C115A  -1.13
51. U78G C123A  -1.06
52. U78C U129A  -1.01
53. C79U A84G  -0.834
54. U78C A90C  -0.796
55. U78C C94A  -0.785
56. U78C C101U  -0.647
57. C79G U112C G122C  -0.637
58. C76G A118G G122U  -0.593
59. C76U C94U C104U U131C  -0.407
60. C79A C123A  -0.392
61. G77A C97U  -0.317
62. G77A C80U  -0.237
63. C79A A119G  -0.23
64. G77A U132C  -0.208
65. C76A A83C  -0.201
66. G77A C88U  -0.0927
67. C76U U78G  -0.0426
68. G77C U78G U106A  -0.0347
69. U78C G93A C101U C123U  -0.0122
70. C79G A121C  0.144
71. A75G C123U U125G U126A  0.149
72. G77C A121U  0.189
73. U78C C88U  0.285
74. A75U C104A A121U C124U  0.403
75. U78G U87C  0.411
76. U78A C85U U112A  0.505
77. C79G C123G U133A  0.663
78. U78A C79U U112A U131G  0.67
79. C76U U112A  0.984
80. U78G U112G  1.33
81. U78C C101U G120U A121U U132A  1.42
82. C76U A121C  2.01
83. U78C U112C  2.04
84. C76U A121U  2.22
